The nanobody polyreactivity screen of Harvey et al. (2022)

Assay: yeast display, Sf9 membrane polyspecificity reagent, FACS + sequencing; frameworks hold sequencing errors
In short: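 Nanobodies from a synthetic yeast display library (Saccharomyces cerevisiae BJ5465), induced 36–48 hours with galactose, were stained 1 hour at 4 °C with 10% biotinylated, detergent-solubilized Sf9 membrane reagent, enriched on streptavidin microbeads, then FACS-sorted. Anti-HA (expression) and streptavidin (reagent binding) fluorescence set low and high (top ~1%) gates. Polyreactivity labels come from the gate of origin. Genes were colony-PCR amplified, MiSeq 2 × 250 sequenced and filtered by CDR length.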

| Sequence | polyreactivity (PSR sort gate) |
| --- | --- |
| QVQLVESGGGLVQAGGSLRLSSAASGRIFFHNAMGWCRQAPGKDRELVAAIRSSTGSTYYADSVKGRFTISRDNAKNTVYLQMNSLKPEDNAVYYCAARSYDKYSRRVWGLGYWGQGTQVTVSS | high polyreactivity |
| QVQLVESGGGLVQAGGSLRLSSAASGRIFRFYAMGWYRQAPGKERELVAAITSGGSTYYADSVKGRFTISRDNAKNTVYLQMNRLKPEDTAVYYCANYYWGQGTQVTVSS | low polyreactivity |
| QVQLVESGGGLVQAGGSLRLSSAASGRIFRYYAMGWYSQAPGKERELVAAISWSGGNSYYADSVKGRFTISRDNAKNTVYLQMNSLKTEDTAVYYCNAYYLPSRYDYWGQGTQVTVSS | high polyreactivity |
| QVQLVESGGGLVQAGGSLRLSSAASGRIFSDYAMGWYRQAPGKERELVATITSGDSTNYGDSVKGRFTISRDNAKNTVYLQMNSLKTESTEVYYCNAERFPDYDYWGQGTQVTVSS | low polyreactivity |
| QVQLVESGGGLVQAGGSLRLSSAASGRIFVYNAMGWYRQAPGKERELVAGISWSGARSHYADSVKGRFTISRDNAKKTVYLLMNSLKPEDTAVYYCAAYPQYRSFQYDYWGQGTQVTVSS | high polyreactivity |
| QVQLVESGGGLVQAGGSLRLSSAASGRIFYGYAMGWYRQAPGKERELVAGISYRGARTYYADSVKGRFTISRDNAKNTVYLQMNSLKPEDTAVYYCNAVPYYPFAFGALDYWGQGTQVTVSS | high polyreactivity |
| QVQLVESGGGLVQAGGSLRLSSAASGRIFYHNTMGWYRQAPGKERELVAAIRSGSSTYYADSVKGRFTISRDNAKNTVYLQMNSLKPEDTAVYYCNARPWYSWGVDYDYWGQGTQVTVSS | low polyreactivity |
| QVQLVESGGGLVQAGGSLRLSSAASGRIFYKYVMGWYRQATGKERELVATITSGGSTYYADSVKGRFTISRDNAKNTVYLQMNSLKPEDTAVFYCAARKYYSRAYDYWGQGTQVTVSS | high polyreactivity |
| QVQLVESGGGLVQAGGSLRLSSAASGRILYRYAMGWYRQAPGKESELVAAIYRSGGDTYYADSVKGRFTITRDNAKNTVYLQMNSLIPEDTAVYYCAASFEGSGYRYDYWGQGSQVTVSS | low polyreactivity |
| QVQLVESGGGLVQAGGSLRLSSAASGRNFSRYAMGWYRQAPGKERELVAAINKSGGSTYYADSVKGRFTISRDNAKNTVYLQMNSLKPEDSAFYYCNAVYYWYKGDYWGQGSQVTVSS | high polyreactivity |
| QVQLVESGGGLVQAGGSLRLSSAASGRTFDAYAMGWNRQAPGKERELVAAISGRGGSTTYADSVKGRFTISRDNAKNTVYLQMNSLKPEDTAVYYCAARYPPRFGVVRGYSRSGYWGQGTQVTVSS | high polyreactivity |
| QVQLVESGGGLVQAGGSLRLSSAASGRTFEVYAMGWYRQAPGKERELVATITYSGGITYYADSVKGRFTISRDNAKNTVYLQMNSLKPEDTAVYYPIGVGGDYDYWGQGTQVTVSS | low polyreactivity |
| QVQLVESGGGLVQAGGSLRLSSAASGRTFGFNPMGWYRQAPGKERELVAAISSSSSSTYYADSVKGRFTISRDNAKNTVYLQINSLKPEDTAVYYCAKQEPYPFGGYYEYDYWGQGTQVTVSS | low polyreactivity |
| QVQLVESGGGLVQAGGSLRLSSAASGRTFHANAMGWYRQAPGKERELVARINWSGTSTYYADSVKGRFTISRDNAKNTVYLQMNSLKPEDTAVYYCAAGWIRLYSSLYDYWGQGTQVTVSS | high polyreactivity |
| QVQLVESGGGLVQAGGSLRLSSAASGRTFPSYDMGWYRQAPGKERELVAAISSSGGSTYYADSVKGRFTISRDNAKNTVYLQMNSLKPEDTAVYYCAAATPSGYYYWGQGTQVTVSS | high polyreactivity |
| QVQLVESGGGLVQAGGSLRLSSAASGRTFQYYAMGWYRQAPGKERELVAAIDSSGGSTYYADSVKGRFTISRDNAKNTVYLQMNSLKPEDTAVYYCIAGRYRYYYYGYDYWGQGTQVTVSS | high polyreactivity |

| Sequence | polyreactivity (PSR sort gate) |
| --- | --- |
| QVQLVESGGGLVQAGGSLRLSSAASGRTFRYNAMGWYRQAPGKERELVAAIRRGGSTNYADSVKGRITISRDNAKNTVYLQMNSLKPEDTAFYFCAKGHPNDFGYWGQGTQVTVSS | high polyreactivity |
| QVQLVESGGGLVQAGGSLRLSSAASGRTFTRYTMGWYRQAPGKERELVAAIRYSGGSTYYADSVKGRFTISRDNAKNTVYLQMNSLKPEDTAVYYCAARSYYYGFLYRYDYWGQGTQVTVSS | low polyreactivity |
| QVQLVESGGGLVQAGGSLRLSSAASGRTFWRYGMGWYRQAPGKERELVAAITDSGDSTYYADSVKGRFTISRDNAKNTVYLQMNSLKPEDTAVYYCAASDVVFALNGYYPGEDDYWGQGTQVTVSS | low polyreactivity |
| QVQLVESGGGLVQAGGSLRLSSAASGRTFYSNAMGWYRQAPGKERELVAGISKSGGITYYADSVKGRFTISRDNAKNTVYLQMNRLKPEDTAVYYCAARRRGRFYYWGQGTQVTVSS | high polyreactivity |
| QVQLVESGGGLVQAGGSLRLSSAASGSIFGDYAMGWYRQSPGKERELVAAISSDGSTNYADSVKGRFTISRDNAKNTVYLQMNSLKPEDTAVYYCAADTGGWYFYSYYYWGQGTQVTVSS | low polyreactivity |
| QVQLVESGGGLVQAGGSLRLSSAASGSIFRVNAMGWYRQAPGKERELVAAISTSGGNTYYADSVKGRFTISRDNAKNTVYLQMNSLKPEDTAVYYCNAPWSSFNGFTGRYDYWGQGTQVTVSS | low polyreactivity |
| QVQLVESGGGLVQAGGSLRLSSAASGSIFRYNAMGWYRPAPGKERELVAAITSSGGSTYYADSVKGRFTISRDNAKNTVYLQMNSLKPEDTAVYYCAAVRRRVHYPYDYWGQGTQVTVSS | high polyreactivity |
| QVQLVESGGGLVQAGGSLRLSSAASGSIFRYNAMGWYRQAPGKERELFAAISYRGGRTYYADSVKGRFTISRDNAKNTVYLQMNSLKPEDTAVYYCNADSIYSARGWLYGYWGQGTQVTVSS | low polyreactivity |
| QVQLVESGGGLVQAGGSLRLSSAASGSIFSQNAMVWYTQAPGKERELVASISSGDSTTYADSVKGRFTISRDNAKNTVYLQMNSLKPEDTAVYYCNAYRYNALPWRYVGYDYWGQGTQVTVSS | low polyreactivity |
| QVQLVESGGGLVQAGGSLRLSSAASGSIFYGNSMGWYRQAPGKERELVAAISQSGGSTYYADSVKGRFTISRDNAKNTVYLQMNSLKPEDTAVYYCAAYTPYATWRYDYWGQGTQVTVSS | low polyreactivity |
| QVQLVESGGGLVQAGGSLRLSSAASGSIFYRYAMGWYRQAPGKERELVAVISRGGSTNYADSVKGRFTISRDNAKNTVYLQMNSLKPEDTAVYYCAAGGYSKGDYWGQGTQVTVSS | high polyreactivity |
| QVQLVESGGGLVQAGGSLRLSSAASGSILPYYAMGWYRQAPGKESELVATITSRGGSTYYADSVKGRFTISRDNAKNTVYLQMNSLKPEDTAVYYCAKEYRYYRRRYDYCGQGTQVTVSS | high polyreactivity |
| QVQLVESGGGLVQAGGSLRLSSAASGSILTINAMGWYRLAPGKERELVARITISSGSTYYADSVKGRFTISRDNAKNTVYLQLNSLKPEDTAVYYCAKLRYPYLFWDDSEYWGQGTQVTVSS | low polyreactivity |
| QVQLVESGGGLVQAGGSLRLSSAASGSNFPTNAMGWYRQAPGKETELVAAITDGGSTNYADSVKGRFTISRDNAKNTVYLQMNSLKPEDTAVYYCAAVGFKTVLPEYDYWGKGTQVTVSS | low polyreactivity |
| QVQLVESGGGLVQAGGSLRLSSAASGSTFFLYGMRWYSQPPGKERQLVAAITWNGGSTSYADSVKGRFTISRDIAKFTVYLQMNSLKPEDTAVYYWAADYYGYFSTAYEYWGQGTQVTVSS | low polyreactivity |
| QVQLVESGGGLVQAGGSLRLSSAASGSTFFSYAMGWYRQAPGKERELVAAISWIDDGTYYADSVKGRFTISRDNAKNTVYLQMNSLKPEDTAVYYCAADIGAYRTWDYEYWGQGTQVTVSS | low polyreactivity |
